{
  "source": "patent US7470669B2",
  "about": "“Isolated polypeptide comprising a leptin fragment” (Serono Genetics Institute, S.A., priority 1999, dated 2008)",
  "key": {"[1]": {"test_system": "db^Pas/db^Pas mice", "test": "Postprandial plasma TG response after high-fat test meal in db^Pas/db^Pas mice", "assay_type": "in vivo, mouse", "settings": "0.25 μg/animal i.p.", "experimental": "FIGS. 1A and 1B show the effect of leptin on postprandial plasma TG response in db/db and db^Pas/db^Pas mice. Overnight-fasted db/db (A), db^Pas/db^Pas (B) mice were gavage-fed a high-fat test meal and immediately injected intravenously (db/db) or intraperitoneally (db^Pas/db^Pas) with saline (open symbols) or 50 μg mouse recombinant leptin (closed symbols). At the indicated times, blood was collected from the tail (A) or orbital (B) vein, plasma was separated by centrifugation, and plasma TG concentrations were determined using an enzymatic kit. Each point represents the mean±SEM (db/db: saline, n=4, leptin, n=3; db^Pas/db^Pas: saline, n=6, leptin, n=7). […] The plasma lipid response was then measured as in A and B. The area under the response curve (AUC) was then calculated using a triangulation method on Microsoft Excel between 0 and 4 hr (mg TG·h/mL). […]\nFIGS. 7A and 7B show a comparison of the effect of human and mouse leptin on LSR activity in rat hepatocytes and on postprandial increase in plasma TG in db^Pas/db^Pas mice. […] The media were removed and were analyzed for TCA-soluble degradation products. […] The data represent the difference in TG concentrations measured at t=0 and the average of the concentrations at 3 and 4 hours. […]"}, "[2]": {"test_system": "LSR", "test": "LSR activity (oleate-induced 125I-LDL binding, uptake, degradation) in PLC cells", "assay_type": "cell-based, human", "settings": "10 ng/mL recombinant leptin", "experimental": "FIGS. 5A, 5B, 5C, and 5D show the stimulatory effect of leptin on LSR activity in PLC and suppression of this effect by 81B antibody. For FIGS. 5A, 5B, and 5C, cultured PLC cells were incubated at 37° C. for 30 min with increasing concentrations of human recombinant leptin in Buffer A. After this, 0.5 mM oleate and 20 μg/mL ^125I-LDL were added, and cells were further incubated at 37° C. for 2 h. Cells were washed, and the amount of oleate-induced ^125I-LDL bound (5A), internalized (5B) and degraded (5C) were measured. […] After washing, the amount of ^125I-LDL binding was determined, and is shown here as the mean±SD of triplicate determinations.\nFIGS. 8A and 8B show the effect of mouse or human leptin on LSR activity in primary cultures of rat hepatocytes or a human liver cell line (PLC). […] The cells were washed, and the amount of oleate-induced ^125I-LDL bound and degraded was measured as described previously (Bihain, B. E., and Yen, F. T. (1992). Free fatty acids activate a high-affinity saturable pathway for degradation of low density lipoproteins infibroblasts from a subject homozygous for familial hypercholesterolemia. Biochemistry 31, 4628-4636.\nFIGS. 35A and 35B show graphs of LSR activity and mRNA expression measured in PLC cells preincubated 24 h with leptin. […] Cells were washed, and the amount of oleate-induced ^125I-LDL binding was measured as described previously. […]"}},
  "data": [
    {"molecule": "mouse leptin: recombinant mouse leptin, laboratory-prepared or commercial (Sigma, Calbiochem) (protein, UniProt P41160 22-167, looked up) Leptin: VPIQKVQDDTKTLIKTIVTRINDISHTQSVSAKQRVTGLDFIPGLHPILSLSKMDQTLAVYQQVLTSLPSQNVLQIANDLENLRDLLHLLAFSKSCSLPQTSGLQKPESLDGVLEASLYSTEVVALSRLQGSLQDILQQLDVSPEC", "values": [
      {"measurement": "postprandial plasma TG response", "setting": "[1]", "result": "pronounced effect"},
      {"measurement": "stimulation of LSR activity in human PLC cells", "setting": "[2]", "result": "inactive"}
    ]}
  ]
}
